This note sets out measurements from patent publication US20240148887A1 (MERSANA THERAPEUTICS, published 2024).

Substitutions are numbered along the chain they refer to.

Experiment [1] concerns the target T1, NaPi2b on the cell surface of OVCAR3 human ovarian carcinoma cells (human, UniProt O95436 1-690).
T1 construct: also called sodium-dependent phosphate transport protein 2B; SLC34A2
T1 sequence: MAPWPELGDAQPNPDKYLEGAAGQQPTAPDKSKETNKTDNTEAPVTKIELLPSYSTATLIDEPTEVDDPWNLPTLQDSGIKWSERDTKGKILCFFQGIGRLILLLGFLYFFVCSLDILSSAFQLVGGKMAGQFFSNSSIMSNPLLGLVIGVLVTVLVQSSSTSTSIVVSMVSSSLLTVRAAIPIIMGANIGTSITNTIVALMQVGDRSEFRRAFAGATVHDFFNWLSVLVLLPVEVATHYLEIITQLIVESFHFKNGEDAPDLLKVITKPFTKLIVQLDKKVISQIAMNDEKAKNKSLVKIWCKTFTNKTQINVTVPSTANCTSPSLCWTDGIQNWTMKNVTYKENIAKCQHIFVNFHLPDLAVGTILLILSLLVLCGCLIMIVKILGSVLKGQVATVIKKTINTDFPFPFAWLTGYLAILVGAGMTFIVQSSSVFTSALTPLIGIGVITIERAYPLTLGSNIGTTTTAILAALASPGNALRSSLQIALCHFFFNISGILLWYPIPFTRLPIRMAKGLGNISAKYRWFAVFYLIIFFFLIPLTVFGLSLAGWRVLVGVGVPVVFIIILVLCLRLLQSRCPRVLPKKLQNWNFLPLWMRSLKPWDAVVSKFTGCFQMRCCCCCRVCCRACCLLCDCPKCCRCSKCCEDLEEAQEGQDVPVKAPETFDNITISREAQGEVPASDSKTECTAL
Briefly: flow cytometry on OVCAR3 cells, Alexa Fluor 647 anti-human IgG, median fluorescence, four-parameter fit; mean of 2 experiments.
Protocol: The detached cells were triturated in media, and plated in 96 well U-bottom plates, at a density of 50,000 cells in medium (75 μL). […] The cells were washed with ice cold PBS (3×), and resuspended in ice cold PBS with 1% paraformaldehyde (100 L). The fluorescence per cell was determined by analyzing 5,000 cells for each treatment on the flow cytometer. The median fluorescence value for each treatment was plotted, and EC₅₀ values were calculated with Graphpad Prism software by four-parameter curve fitting.

The target in experiment [2] is T2, Biotinylated NaPi2b-derived peptide (QINVTVPSTANCTSPSLCWTDGIQNWTMKN-biotin; Genscript) (C-terminal biotin).
T2 construct: also called NaPi2b-derived peptide antigen; immobilized NaPi2b-derived peptide
T2 peptide: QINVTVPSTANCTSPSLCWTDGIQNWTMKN
In words: BLI (Octet), biotinylated peptide on streptavidin sensors, 25 C; mean of 4 experiments. How it is done:
Biotinylated NaPi2b-derived peptide ([…]-biotin; Genscript) was immobilized to streptavidin octet sensors in kinetics buffer (10×). Sensors were then blocked in kinetics buffer (10×) with biocytin (50 μg/mL).
(In BLI a coated tip is dipped into the sample, and binding shifts an interference pattern.)

The target in experiment [3] is T3, FcγRI (human, UniProt P12314 16-288, limits assumed).
T3 construct: also called Fc receptor FcγRI
T3 sequence (P12314 16-288 limits assumed): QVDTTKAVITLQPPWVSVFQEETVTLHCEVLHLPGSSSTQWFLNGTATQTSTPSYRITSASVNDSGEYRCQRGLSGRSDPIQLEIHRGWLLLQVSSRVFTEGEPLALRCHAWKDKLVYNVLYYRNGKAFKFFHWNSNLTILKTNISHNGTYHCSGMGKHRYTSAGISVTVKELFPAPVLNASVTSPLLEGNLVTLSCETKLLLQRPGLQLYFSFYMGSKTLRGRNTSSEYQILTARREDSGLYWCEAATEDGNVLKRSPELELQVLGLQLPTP
In words: BLI (Octet QKe), test article on anti-human Fab-CH1 (FAB2G) sensors, receptor in solution, 25 C, 1:1 global fit; mean of 3 experiments. The procedure:
(§1) Dissociation was performed for 15 minutes. Binding constants were calculated with the global fit averages of the traces using a 1:1 model. […] Kinetic parameters were calculated using Octet software (ForteBio).

Experiment [4] concerns the target T4, FcγRIIA (H167) (human, UniProt P12318 36-218, limits assumed).
T4 construct: H167 is printed as the allelic form
T4 sequence (looked up): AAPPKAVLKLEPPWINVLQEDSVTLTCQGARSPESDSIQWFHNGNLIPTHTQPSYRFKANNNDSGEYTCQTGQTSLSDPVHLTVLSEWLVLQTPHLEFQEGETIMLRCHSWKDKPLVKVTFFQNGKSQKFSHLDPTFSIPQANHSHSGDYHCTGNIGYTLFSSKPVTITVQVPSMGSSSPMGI
The experiment is described as above. The procedure:
as §1

Experiment [5] has as its target T5, NaPi2b-derived peptide from mouse ([Cyc(12,18)]Ac-EMNVTVPSTDNCTSPSYCWTDGIQTWTIQN-amide) (mouse, [Cyc(12,18)] cyclisation between residues 12 and 18; N-terminal acetyl (Ac-); C-terminal amide).
T5 peptide: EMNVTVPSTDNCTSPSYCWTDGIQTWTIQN
Briefly: ELISA, cyclic peptide coated on plate; mean of 2 experiments. On the technique in general: ELISA stands for enzyme-linked immunosorbent assay.

In experiment [6] the target is T6, NaPi2b-derived peptide from cynolmogus monkey ([Cyc(12,18)]Ac-QMNVTVPSMANCTSPSLCWTDGIQIWTMKN-amide) (cynomolgus monkey, [Cyc(12,18)] cyclisation between residues 12 and 18; N-terminal acetyl (Ac-); C-terminal amide).
T6 peptide: T2 peptide with I2M, T9M, N25I
The description is as above.

Experiment [7] has as its target T7, NaPi2b-derived peptide from rat ([Cyc(12,18)]Ac-EENVTVPSPDNCTSPSYCWTDGIQTWTIQN-amide) (rat, [Cyc(12,18)] cyclisation between residues 12 and 18; N-terminal acetyl (Ac-); C-terminal amide).
T7 peptide: T5 peptide with M2E, T9P
The experiment is described as above.

Experiment [8] addresses T8, NaPi2b-derived peptide from human ([Cyc(12,18)]Ac-QINVTVPSTANCTSPSLCWTDGIQNWTMKN-amide) (human, [Cyc(12,18)] cyclisation between residues 12 and 18; N-terminal acetyl (Ac-); C-terminal amide).
T8 peptide: T2 peptide
The experiment is described as above.

Experiment [9] deals with T9, human FcRn protein (Immunitrack) (human, UniProt P55899 24-297; P61769 21-119, limits assumed).
T9 construct: also called FcRn receptor
T9 sequence (P55899 24-297 limits assumed, chain 1 of 2): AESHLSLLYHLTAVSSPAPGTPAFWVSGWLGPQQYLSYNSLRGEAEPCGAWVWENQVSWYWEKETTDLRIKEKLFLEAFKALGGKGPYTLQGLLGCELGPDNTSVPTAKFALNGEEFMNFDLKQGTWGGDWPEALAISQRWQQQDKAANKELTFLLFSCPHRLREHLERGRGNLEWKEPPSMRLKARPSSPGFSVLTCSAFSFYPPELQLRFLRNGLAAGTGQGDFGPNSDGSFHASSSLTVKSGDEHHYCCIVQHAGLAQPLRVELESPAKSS
T9 sequence (P61769 21-119 limits assumed, chain 2 of 2): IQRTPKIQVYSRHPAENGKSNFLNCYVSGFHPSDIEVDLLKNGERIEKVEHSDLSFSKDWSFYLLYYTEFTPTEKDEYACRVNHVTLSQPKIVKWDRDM
Briefly: BLI (Octet QKe), test article on anti-human Fab-CH1 (FAB2G) sensors, FcRn in solution, pH 6.0, 1:1 global fit; mean of 2 experiments. How it is done: as §1
(§2) After association, sensors were washed for 5 minutes in FcRn binding buffer (Boston Bioproducts; diluted to 100 mM NaH₂PO₄, 0.05% Tween 20, pH 6.0). Association and dissociation steps were performed in FcRn binding buffer. Association measurements to FcRn protein (Immunitrack) was measured at 7 concentrations (from 1 μM to […], 2-fold serial dilutions) for 5 minutes. Dissociation was performed for 15 minutes. Binding constants were calculated with the global fit averages of the traces using a 1:1 model.

The target of a further experiment is FcγRIIIA (V176) (human, UniProt P08637 17-208, limits assumed). In words: BLI (Octet QKe), test article on anti-human Fab-CH1 (FAB2G) sensors, receptor in solution, 25 C, 1:1 global fit; mean of 2 experiments. The procedure:
as §1

Experiment [10] has as its target T10, Human NaPi2b-derived peptide (QINVTVPSTANCTSPSLCWTDGIQNWTMKN) (human).
T10 construct: no modification is printed there; also called NaPi2b peptide
T10 peptide: T2 peptide
In words: ELISA, peptide coated on plate, anti-human IgG-HRP, four-parameter fit; mean of 2 experiments.
Protocol: (§3) Human NaPi2b-derived peptide ([sequence]) was coated onto the surface of each well of a 96-well plate by incubation with the peptide (1 μg/mL in PBS), overnight at +4° C. The wells were then blocked by incubation with BSA (3% in PBS, containing 0.1% Tween 20 (PBST)) for 1 hour at room temperature. […] The unbound test article was removed by washing with PBST (3×). A secondary anti-human IgG conjugated to HRP (0.16 μg/mL in PBST) was incubated in each well for 1 hour. The unbound secondary antibody was removed by washing with PBST (3×). The HRP substrate, TMB, was added to each well and incubated until a blue color was visible. The reaction was quenched by the addition of sulfuric acid (0.2 N, 100 μL). […] The values were plotted using GraphPad Prism software. EC₅₀ values were determined by four-parameter curve fitting.

Experiment [11] has as its target T9, human FcRn protein (Immunitrack). Briefly: BLI (Octet QKe), test article on anti-human Fab-CH1 (FAB2G) sensors, FcRn in solution, pH 6.0, 1:1 global fit; mean of 5 experiments. The procedure: as §1, §2
For experiment [12], the target named is T10, Human NaPi2b-derived peptide …. Briefly: ELISA, peptide coated on plate, anti-human IgG-HRP, four-parameter fit; mean of 3 experiments.
Protocol: as §3
The target in experiment [13] is T3, FcγRI. Briefly: BLI (Octet QKe), test article on anti-human Fab-CH1 (FAB2G) sensors, receptor in solution, 25 C, 1:1 global fit; mean of 2 experiments. How it is done: as §1
The target in experiment [14] is T4, FcγRIIA (H167). Described as above. The procedure:
as §1

FcγRIIIA (V176), sequence (P08637 17-208 F176V limits assumed): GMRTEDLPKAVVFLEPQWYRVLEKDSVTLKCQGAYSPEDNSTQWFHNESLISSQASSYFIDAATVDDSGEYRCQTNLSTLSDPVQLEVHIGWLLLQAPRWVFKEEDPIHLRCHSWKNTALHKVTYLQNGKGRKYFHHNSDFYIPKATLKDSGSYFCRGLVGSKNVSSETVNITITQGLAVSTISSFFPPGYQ

B1: XMT-1535 (anti-NaPi2b antibody) (antibody, human IgG1, kappa)
heavy: not shown
light: DIQMTQSPSSLSASVGDRVTITCSASQDIGNFLNWYQQKPGKTVKVLIYYTSSLYSGVPSRFSGSGSGTDYTLTISSLQPEDFATYYCQQYSKLPLTFGQGTKLELKRRTVAAPSVFIFPPSDEQLKSGTASVVCLLNNFYPREAKVQWKVDNALQSGNSQESVTEQDSKDSTYSLSSTLTLSKADYEKHKVYACEVTHQGLSSPVTKSFNRGEC
notes: Unconjugated IgG1 antibody
By EC50 is commonly meant the midpoint of the concentration-response curve. What is called Kd is the free concentration of one partner at which half of the binding sites on the other are occupied at equilibrium, for simple one-to-one binding. As usually defined, the koff is the rate constant with which the complex falls apart. By kon is commonly meant the rate constant with which the complex forms. For the molecule B1, the EC50 in experiment [1] came to 11.2 nM; in experiment [5], 2.77 nM; in [6] it was 4.04 nM; in experiment [7], 4.71 nM; in experiment [8] it was 4.43 nM; in [10], 1.77 nM. In addition, the Kd was determined as 0.0729 nM in [2]; 0.15 nM with FcγRI [3]; 1740 nM with FcγRIIA (H167) [4]; 2.76 nM in [9]; 641 nM with FcγRIIIA (V176). For the same molecule, the koff in experiment [2] turned out to be 1.27e-05 s⁻¹; with FcγRI [3], 0.000192 s⁻¹; with FcγRIIA (H167) [4], 0.308 s⁻¹; in [9], 0.000448 s⁻¹; with FcγRIIIA (V176), 0.146 s⁻¹. For the same molecule, the kon in experiment [2] was 170000 M⁻¹ s⁻¹; with FcγRI [3], 1.28e+06 M⁻¹ s⁻¹; with FcγRIIA (H167) [4], 175000 M⁻¹ s⁻¹; in experiment [9] it was 160000 M⁻¹ s⁻¹; in the experiment with FcγRIIIA (V176), 216000 M⁻¹ s⁻¹.

B2: Conjugate 7 (XMT-1535 drug conjugate of Scaffold 6) (antibody, human IgG1, kappa)
heavy: not shown
light: B1 light
modifications: Scaffold 6 linker-drug (AF-HPA payload) attached by click chemistry to the azido-modified GlcNAc(Fuc)-GalNAc glycan on the asparagine at N297 (N300 of SEQ ID NO: 1 according to claim 40)
notes: The glycan was trimmed with Endo SH and extended with an azido sugar; the text prints 6.6
For the molecule B2, the EC50 in [1] is 8.15 nM; in experiment [5], 1.79 nM; in [6], 3.83 nM; in [7] it was 2.48 nM; in experiment [8] it was 3.7 nM; in experiment [12], 1.44 nM. Also, the results for the Kd (in experiment [2]; with FcγRI [3]; in [11]) were 0.0828 nM, 3.05 nM and 5.88 nM, respectively. Moreover, the koff turned out to be 1.81e-05 s⁻¹ in experiment [2], 0.00373 s⁻¹ with FcγRI [3] and 0.000481 s⁻¹ in experiment [11]. In addition, the kon turned out to be 200000 M⁻¹ s⁻¹ in [2], 1.13e+06 M⁻¹ s⁻¹ with FcγRI [3] and 86100 M⁻¹ s⁻¹ in [11].

B3: Conjugate 11 (XMT-1535 stochastic conjugate) (antibody, human IgG1, kappa)
heavy: not shown
light: B1 light
modifications: maleimido scaffold of Scaffold 6 (AF-HPA payload) on cysteines freed by TCEP reduction; stochastic, positions not given
notes: DAR 6.5
In the case of B3, the EC50 in [1] is 6.56 nM; in experiment [5], 2.26 nM; in [6], 4.19 nM; in [7], 3.72 nM; in experiment [8] it was 5 nM; in experiment [12], 1.05 nM. Moreover, the Kd in [2] was found to be 0.0813 nM; in experiment [11], 4.96 nM; with FcγRI [13] it was 0.166 nM; with FcγRIIIA (V176), 270 nM; with FcγRIIA (H167) [14], 1250 nM. Further, the koff was found to be 1.37e-05 s⁻¹ in [2]; 0.00055 s⁻¹ in [11]; 0.000209 s⁻¹ with FcγRI [13]; 0.0671 s⁻¹ with FcγRIIIA (V176); 0.345 s⁻¹ with FcγRIIA (H167) [14]. In addition, the kon in [2] was 165000 M⁻¹ s⁻¹; in experiment [11], 126000 M⁻¹ s⁻¹; with FcγRI [13], 1.26e+06 M⁻¹ s⁻¹; with FcγRIIIA (V176), 270000 M⁻¹ s⁻¹; with FcγRIIA (H167) [14], 273000 M⁻¹ s⁻¹.
